Assay results: patent US10724034B2, “Genetic encoding of chemical post-translational modification for phage-displayed libraries” (THE GOVERNORS OF THE UNIVERSITY OF ALBERTA, priority 2014, dated 2020)
Ends that are not written are not given here. Glu = glucose (not glutamate); Rha = rhamnose

Assays:
streptavidin [1] = biological target: streptavidin (UniProt P22629); experiment: panning/deep seq., Ratio col 1 (Streptavadin/Blank by arithmetic)
streptavidin [2] = biological target: streptavidin (UniProt P22629); experiment: panning/deep seq., Streptavadin rep 2
streptavidin [3] = biological target: streptavidin (UniProt P22629); experiment: panning/deep seq., Ratio col 3 (Streptavadin/Bulk amplified by arithmetic)
streptavidin [4] = biological target: streptavidin (UniProt P22629); experiment: panning/deep seq., Ratio col 2 (Streptavadin/Naive by arithmetic)
streptavidin [5] = biological target: streptavidin (UniProt P22629); experiment: panning/deep seq., Streptavadin rep 1
streptavidin [6] = biological target: streptavidin (UniProt P22629); experiment: panning/deep seq., Streptavadin rep 3
human Galectin-3 = human Galectin-3 (Homo sapiens, UniProt P17931); experiment: ELISA-like competition assay: inhibition of HRP-Lactose binding to surface-immobilized Galectin-3; conditions: for Times more potent than MeGal at inhibiting HRP-Lac binding to Galectin-3: versus MeGal
Excerpt: Using an ELISA-like competition assay (FIGS. 12, 13), the binding activity of these glycopeptides to carbohydrate recognition domain (CRD) of the human Galectin-3 and their ability to compete with binding of Lactose-conjugated horseradish peroxidase (HRP), were validated (FIG. 12). As references, we used known Gal3 ligands, such as lactose, Methyl-β-D-galactopiranoside (MeGal) and tetrasaccharide Lacto-N-Tetraose (LNT).
FIG. 12 illustrates an evaluation of activity of hits identified from genetically-encoded libraries of glycopeptides against […]. The assay measures that inhibitory constant (denoted as Effective concentrations of half-maximal response or EC50) of compounds in the inhibition of the interaction between soluble HRP-Lactose and surface-immobilized Galectin-3.
The competitive activity is quantified as decrease in color development by HRP-lac conjugate bound to Galectin-3 coated at 10 μg/ml concentration on polystyrene 96-well plates.

human Galectin-3 protein = biological target: T1, human Galectin-3 protein (human, UniProt P17931 2-250, limits assumed); experiment: ELISA-like competition with HRP-Lactose on Galectin-3 coated wells; reference MeGal
T1 construct: also called Gal3

[7] = biological target: T2, Bovine carbonic anhydrase II (bovine, UniProt P00921 2-260); experiment: panning/deep seq., Ratio col 2 (Carbonic/Naive by arithmetic) [Carbonic Anhydrase]
T2 construct: Commercial protein; also called BCA

[8] = biological target: T2, Bovine carbonic anhydrase II; experiment: panning/deep seq., Carbonic rep 1 [Carbonic Anhydrase]
[9] = biological target: T2, Bovine carbonic anhydrase II; experiment: panning/deep seq., Carbonic rep 3 [Carbonic Anhydrase]
[10] = biological target: T2, Bovine carbonic anhydrase II; experiment: panning/deep seq., Carbonic rep 2 [Carbonic Anhydrase]
[11] = biological target: T2, Bovine carbonic anhydrase II; experiment: panning/deep seq., Ratio col 3 (Carbonic/Bulk amplified by arithmetic) [Carbonic Anhydrase]
[12] = biological target: T2, Bovine carbonic anhydrase II; experiment: panning/deep seq., Ratio col 1 (Carbonic/Blank by arithmetic) [Carbonic Anhydrase]

human Galectin-3, sequence (P17931 whole entry, the tested form may be a part): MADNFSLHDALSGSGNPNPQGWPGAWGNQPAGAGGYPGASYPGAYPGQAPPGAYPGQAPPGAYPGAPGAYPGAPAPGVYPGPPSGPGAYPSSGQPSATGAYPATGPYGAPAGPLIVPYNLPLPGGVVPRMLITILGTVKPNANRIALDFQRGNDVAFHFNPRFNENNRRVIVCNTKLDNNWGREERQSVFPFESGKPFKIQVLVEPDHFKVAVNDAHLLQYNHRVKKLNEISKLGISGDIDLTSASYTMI
T2 sequence (P00921 2-260 limits assumed): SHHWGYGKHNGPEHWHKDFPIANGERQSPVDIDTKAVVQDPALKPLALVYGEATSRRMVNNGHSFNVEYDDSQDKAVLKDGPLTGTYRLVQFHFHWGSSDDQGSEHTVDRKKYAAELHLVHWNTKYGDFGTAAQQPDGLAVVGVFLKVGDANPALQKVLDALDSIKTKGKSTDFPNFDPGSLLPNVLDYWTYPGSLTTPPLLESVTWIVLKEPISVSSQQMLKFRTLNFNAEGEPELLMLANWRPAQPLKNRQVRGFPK
streptavidin, sequence (P22629 37-163 limits assumed): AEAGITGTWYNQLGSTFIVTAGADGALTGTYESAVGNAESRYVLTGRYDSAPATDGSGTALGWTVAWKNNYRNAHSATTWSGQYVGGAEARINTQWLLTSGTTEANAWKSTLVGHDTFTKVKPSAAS
T1 sequence (P17931 2-250 limits assumed): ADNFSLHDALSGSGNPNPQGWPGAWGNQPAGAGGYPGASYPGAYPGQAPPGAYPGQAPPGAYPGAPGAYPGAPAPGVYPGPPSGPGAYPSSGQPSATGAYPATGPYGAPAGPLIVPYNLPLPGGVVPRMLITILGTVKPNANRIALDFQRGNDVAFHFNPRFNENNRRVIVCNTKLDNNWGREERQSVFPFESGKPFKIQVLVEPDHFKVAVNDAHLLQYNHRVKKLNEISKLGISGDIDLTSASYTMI

Ratio (streptavidin [1])	copy number (streptavidin [2])	Ratio (streptavidin [3])	Ratio (streptavidin [4])	copy number (streptavidin [5])	copy number (streptavidin [6])	Ratio [7]	copy number [8]	copy number [9]	copy number [10]	Ratio [11]	Ratio [12]	Substance	also measured
682	227	614	68	240	147	–	–	–	–	–	–	Bio-GYTQ (peptide)	–
532	135	68	532	246	98	–	–	–	–	–	–	Bio-HFTN (peptide)	–
294	98	12	88	95	72	–	–	–	–	–	–	Bio-HKLN (peptide)	–
271	37	15	14	84	123	–	–	–	–	–	–	Bio-PHLP (peptide)	–
1090	248	197	41	282	453	–	–	–	–	–	–	Bio-PQMS (peptide)	–
500	178	64	75	154	118	–	–	–	–	–	–	Bio-PTHT (peptide)	–
251	87	75	75	29	110	–	–	–	–	–	–	Bio-VHNT (peptide)	–
402	150	72	121	85	127	–	–	–	–	–	–	Bio-WYPH (peptide)	–
–	–	–	–	–	–	3	35	27	20	2	91	SA-QIEH (peptide)	–
–	–	–	–	–	–	11	3	2	5	11	11	SA-WFKL (peptide)	–
–	–	–	–	–	–	10	3	4	2	10	10	SA-WKQQ (peptide)	–
–	–	–	–	–	–	19	121	228	256	38	672	SA-WNTK (peptide)	–
–	–	–	–	–	–	6	10	15	10	35	39	SA-WPPP (peptide)	–
–	–	–	–	–	–	10	3	4	2	10	10	SA-WSVM (peptide)	–
–	–	–	–	–	–	140	43	26	57	21	140	SA-WTWL (peptide)	–
–	–	–	–	–	–	44	154	51	194	44	443	SA-YQYS (peptide)	–

More lines, now with the values behind:

Substance	Ratio (streptavidin [1])	copy number (streptavidin [2])	Ratio (streptavidin [3])	Ratio (streptavidin [4])	copy number (streptavidin [5])	copy number (streptavidin [6])	Ratio [7]	copy number [8]	copy number [9]	copy number [10]	Ratio [11]	Ratio [12]	also measured
Bio-AHPL (peptide)	920	113	138	138	382	333	–	–	–	–	–	–	–
Bio-HLRV (peptide)	373	110	56	373	58	168	–	–	–	–	–	–	–
Bio-HMPR (peptide)	344	121	44	52	118	71	–	–	–	–	–	–	–
Bio-HPSY (peptide)	448	214	58	67	85	104	–	–	–	–	–	–	–
Bio-PALP (peptide)	492	108	89	492	125	210	–	–	–	–	–	–	–
Bio-PFVQ (peptide)	219	61	99	219	82	54	–	–	–	–	–	–	–
Bio-PHYN (peptide)	259	110	58	21	53	70	–	–	–	–	–	–	–
Bio-PLAQ (peptide)	257	71	33	38	110	50	–	–	–	–	–	–	–
Bio-PSIG (peptide)	493	125	56	21	145	174	–	–	–	–	–	–	–
Bio-PVSI (peptide)	330	94	74	49	75	128	–	–	–	–	–	–	–
Bio-VHAW (peptide)	257	39	38	257	73	119	–	–	–	–	–	–	–
Bio-YMNN (peptide)	316	134	142	24	110	40	–	–	–	–	–	–	–
Gal-PAPT: Galactose modified glycopeptide, SEQ ID NO:105	–	–	–	–	–	–	–	–	–	–	–	–	EC50 (human Galectin-3; FIG. 12, read-out: EC50, inhibition of interaction between soluble HRP-Lactose and surface-immobilized Galectin-3): 14 µM
Glu-SIYG (glucose-modified tetramer peptide)	–	–	–	–	–	–	–	–	–	–	–	–	fold higher potency than MeGal (human Galectin-3 protein): 10 fold
Glu-SIYG: combination of glucose and tetramer peptide, SEQ ID NO:106 (also: residue 1 modified with glucose, attachment not given here)	–	–	–	–	–	–	–	–	–	–	–	–	Times more potent than MeGal at inhibiting HRP-Lac binding to Galectin-3 (human Galectin-3): 10 times
Rha-IWVR: Rhamnose-peptide conjugate, SEQ ID NO:108 (also: residue 1 conjugated with rhamnose, attachment not given here)	–	–	–	–	–	–	–	–	–	–	–	–	Potency in HRP-Lac competition compared in words with a control (human Galectin-3; comparison with Lactose, MeGal or LNT): in the same order of the LNT; Times better than Lactose at inhibiting HRP-Lac binding to Galectin-3 (human Galectin-3; versus Lactose): 10 times; Times more potent than MeGal at inhibiting HRP-Lac binding to Galectin-3 (human Galectin-3): 400 times
SA-TAFI (peptide)	–	–	–	–	–	–	167	44	48	58	75	167	–
SA-WLVL (peptide)	–	–	–	–	–	–	12	4	3	4	12	12	–
SA-WNSK (peptide)	–	–	–	–	–	–	10	3	2	4	10	10	–
SA-WPPY (peptide)	–	–	–	–	–	–	4	17	20	16	5	59	–
SA-WQQQ (peptide)	–	–	–	–	–	–	178	403	596	422	102	1580	–
SA-WTSG (peptide)	–	–	–	–	–	–	9	63	46	30	11	154	–
SA-WTYW (peptide)	–	–	–	–	–	–	6	18	15	33	8	73	–
SA-WYKL (peptide)	–	–	–	–	–	–	288	862	285	1160	121	2560	–
SA-YGTH (peptide)	–	–	–	–	–	–	26	50	63	118	7	257	–
SA-YMSN (peptide)	–	–	–	–	–	–	143	51	53	25	10	143	–
